Source: paper PMC3830196, “Calmodulin-like protein AtCML3 mediates dimerization of peroxisomal processing protease AtDEG15 and contributes to normal peroxisome metabolism” (Plant Molecular Biology, 2013)

Biological target: T1, AtDEG15 full length (yeast two-hybrid / three-hybrid fusion) (Arabidopsis thaliana, UniProt Q8VZD4 1-709)
T1 construct: AtDEG15, peroxisomal DEG protease of Arabidopsis thaliana (At1g28320); full-length coding region; Cloned both into pBridge and pGAD424; in the Y3H the full length stood in pBridge; also called AtDEG15_pBridge; AtDEG15_pGAD424; source: yeast two-hybrid fusion (S. cerevisiae AH109)
Experiment: two-hybrid; Matchmaker GAL4 system, fusions in pBridge (DNA-binding domain) and pGAD424 (activation domain), S. cerevisiae AH109; HIS3 reporter (growth on His-free medium) and lacZ reporter (beta-galactosidase, Miller units)
Details: partners not purified

B1: AtCML3 full length (yeast two-hybrid fusion) (natural protein, Arabidopsis thaliana, UniProt Q9SRR7 1-153, looked up)
chain: MDQAELARIFQMFDRNGDGKITKQELNDSLENLGIYIPDKDLVQMIEKIDLNGDGYVDIEEFGGLYQTIMEERDEEEDMREAFNVFDQNRDGFITVEELRSVLASLGLKQGRTLEDCKRMISKVDVDGDGMVNFKEFKQMMKGGGFAALGSNL
notes: AtCML3, calmodulin-like protein of Arabidopsis thaliana (At3g07490); full-length coding region; Cloned both into pBridge and pGAD424; also called AtCML3_pGAD424; AtCML3_pBridge; source: yeast two-hybrid fusion (S. cerevisiae AH109)
  beta-galactosidase activity, fold over the negative controls: 20 fold
